In patent publication US20210393711A1 (YISSUM RESEARCH DEVELOPMENT COMPANY OF THE HEBREW …, published 2021):

Target: T1, mouse Toll-like receptor 2 (mouse, UniProt Q9QUN7 25-784)
T1 construct: whole, on cells; also called murine TLR2; TLR2
Assay: anti-His whole-mount immunofluorescence of mouse maxillary gingival tissue (oral tissue that expresses TLR2) 24 h after oral lavage with scaTLR2-secreting Lactobacillus
Procedure: The ability of Lactobacillus transformants to secrete functional single chain antibody (scAb) in the oral cavity, and the ability of the scAb to bind to oral tissue that express TLR2 was next assessed. Mice were administered by one oral lavage the following Lactobacillus transformants: EV (empty vector transformed, negative control), scahTLR4 (single chain antibody against human TLR4, negative control), and scaTLR2 (single chain antibody against TLR2). After 24 h the mice were sacrificed, Lactobacillus persistence was assessed by culturing viable bacteria and enumerating CFU, and the maxillary gingival tissues were processed for whole mounting and stained with an antibody to the His-tag present in the single chain antibodies Similar Lactobacillus CFU were recovered in all three groups. […] In the control groups there was no detection of His-positive staining (FIG. 7A-B). Therefore, scaTLR2 is secreted by the transformed Lactobacilli in vivo, and avidly binds to oral mucosal tissue.

T1 sequence (Q9QUN7 25-784): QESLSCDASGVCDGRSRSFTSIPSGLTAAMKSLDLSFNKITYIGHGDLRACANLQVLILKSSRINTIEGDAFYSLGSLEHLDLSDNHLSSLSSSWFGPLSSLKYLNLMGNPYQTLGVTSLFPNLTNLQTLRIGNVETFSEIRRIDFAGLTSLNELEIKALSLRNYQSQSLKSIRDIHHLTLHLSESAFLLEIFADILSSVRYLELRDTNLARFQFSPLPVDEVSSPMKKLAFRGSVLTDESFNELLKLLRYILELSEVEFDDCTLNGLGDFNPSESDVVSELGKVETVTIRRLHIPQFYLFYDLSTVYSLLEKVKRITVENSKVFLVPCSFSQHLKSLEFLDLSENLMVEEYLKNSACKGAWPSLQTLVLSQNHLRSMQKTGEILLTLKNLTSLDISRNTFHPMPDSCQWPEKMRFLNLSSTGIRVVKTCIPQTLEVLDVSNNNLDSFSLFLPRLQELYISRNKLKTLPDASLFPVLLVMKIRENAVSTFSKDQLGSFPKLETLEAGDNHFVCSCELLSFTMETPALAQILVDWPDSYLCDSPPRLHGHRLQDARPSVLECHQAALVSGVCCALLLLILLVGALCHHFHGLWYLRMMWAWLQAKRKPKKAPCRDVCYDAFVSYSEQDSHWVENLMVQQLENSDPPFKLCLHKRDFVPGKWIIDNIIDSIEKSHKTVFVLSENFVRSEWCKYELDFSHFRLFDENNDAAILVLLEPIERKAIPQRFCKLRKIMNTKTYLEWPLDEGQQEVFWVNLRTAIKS

B1: anti-TLR2 single chain antibody (scAb) secreted by transformed Lactobacillus, built from the variable regions of mAb T2.5 (scFv)
scFv: QVQLQQSGPELVNPGASVKLSCKASGFTFTTYGINWVKQGPGQGLEWIGWIYPRDGSTNFNENFKDKAALTVDTSSSTAYMELHSLTSEDSAVYFCARLTGGTFLDYWGQGTTVTVSSGGGGSGGGGSGGGGSDIELTQSPASLAVSLGQRATISCRASESVEYYGTSLMQWYQQKPGQPPKLLIFGASNVESGVPVRFSGSGSGTDFSLNIHPVEEDDIVMYFCQQSRKLPWTFGGGTKLEIKR
notes: also called scaTLR2; anti-TLR2 scAb
Q: Does B1 bind?
A: binds
